Assay results reported in paper PMC5201024.

Target: MST3/4 (endogenous MST3 and MST4, m10/m11)
Test: co-immunoprecipitation (anti-Myc IP, immunoblot quantification)
Conditions: HeLa cells co-transfected with Myc-RHOA-Q63L and GFP-FAM65A full-length; n=3 independent experiments; read off a plot

- response (IP/Input ratio (arbitrary units)): 4.6
Substance: RHOA wild type (P61586) Q63L
